Results taken from patent CN116199778A (SHANGHAI JUNSHI BIOSCIENCES CO LTD; JUNMENG BIOSCIENCES CO …, dated 2023).

T1: 含有His标签的鼠4-1BB (mouse 4-1BB with His tag, Sino Biological 50811-M08H) (mouse, UniProt P20334 24-187)
T1 construct: Bought protein; Coated on the ELISA plate at 1.0 ug/mL; not shown: His tag
T1 sequence (looked up): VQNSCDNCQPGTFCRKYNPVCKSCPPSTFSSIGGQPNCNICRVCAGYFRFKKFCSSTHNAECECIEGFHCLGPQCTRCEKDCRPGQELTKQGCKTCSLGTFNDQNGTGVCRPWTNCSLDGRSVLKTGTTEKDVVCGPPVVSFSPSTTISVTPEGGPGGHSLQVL

B1: JS011-phage3 (antibody, V domains shown)
VH: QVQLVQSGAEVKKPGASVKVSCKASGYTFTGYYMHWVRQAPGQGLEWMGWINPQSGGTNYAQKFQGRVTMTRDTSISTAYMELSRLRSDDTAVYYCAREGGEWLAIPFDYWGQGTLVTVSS
VL: ELELTQPPSVSVSPGQTASITCSADKLGDKYASWYQQKPGQSPVLVLYEDSKRPSGIPERISGSNSGNTATLTIRGTQPMDEADYYCQTWDTNTVLFGGGTRLTVL
B2: Urelumab (antibody, V domains shown)
VH: QVQLQQWGAGLLKPSETLSLTCAVYGGSFSGYYWSWIRQSPEKGLEWIGEINHGGYVTYNPSLESRVTISVDTSKNQFSLKLSSVTAADTAVYYCARDYGPGNYDWYFDLWGRGTLVTVSS
VL: EIVLTQSPATLSLSPGERATLSCRASQSVSSYLAWYQQKPGQAPRLLIYDASNRATGIPARFSGSGSGTDFTLTISSLEPEDFAVYYCQQRSNWPPALTFGGGTKVEIK
B3: JS011-phage6 (antibody, V domains shown)
VH: QVQLVQSGAEVKKPGASVKVSCKASGYTFTGQYIHWARQAPGQGLEWMGWINPNSGGTNYAQKFQGRVTMTRDTSISTAYMELSRLRSDDTAVYYCARDKAGADYWGQGTLVTVSS
VL: ELALTQPPSVSGSPGQSITISCTGTSSDIGGYDYVSWYQQYPGKAPKLMISGVSNRPSGVSNRFSGSKSGNTASLIISGLQAEDEGDYYCSSYTSRSTRWVFGGGTKLTVL

Legend:
[1] = target: 4-1BB on the surface of Jurkat NFKB 4-1BB cells (UniProt Q07011 24-255, limits assumed); assay: cell-based or functional assay
[2] = target: T1, 含有His标签的鼠4-1BB (mouse 4-1BB with His …); assay: ELISA, His-tagged mouse 4-1BB coated at 1.0 ug/mL, antibody titrated, anti-human IgG4 Fc HRP detection

4-1BB on the surface of Jurkat NFKB 4-1BB cells, sequence (Q07011 24-255 limits assumed): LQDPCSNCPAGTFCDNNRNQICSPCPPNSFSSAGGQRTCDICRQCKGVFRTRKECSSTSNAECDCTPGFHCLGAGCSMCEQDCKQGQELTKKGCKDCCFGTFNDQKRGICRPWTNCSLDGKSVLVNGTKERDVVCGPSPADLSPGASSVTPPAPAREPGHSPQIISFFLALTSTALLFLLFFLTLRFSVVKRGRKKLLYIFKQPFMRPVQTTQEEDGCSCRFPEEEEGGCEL

Binder | EC50, luciferase reporter (RLU), Raji / Jurkat NFKB 4-1BB two-cell system [1] | EC50, luciferase reporter (RLU), Raji / Jurkat NFKB (4-1BB low expression) two-cell system [1] | EC50, luciferase reporter (RLU), THP-1 / Jurkat NFKB 4-1BB two-cell system [1] | binding result [2]
B1 | 9.45 µg/mL | 9.45 µg/mL | 0.00664 µg/mL | 
B2 | 7.24 µg/mL | 86 µg/mL | 219 µg/mL | 
B3 | 2.71 µg/mL |  | 0.283 µg/mL | no binding (tested: 1μg/ml起始)
